molecular target: monomeric (SARS-CoV-2 S ectodomain monomer) (SARS-CoV-2); assay: ELISA, coated monomeric S ectodomain [cont'd]

Binder | EC50 [µg/mL]
MnC4t1p1_A10 (antibody, V domains shown) VH: QLQVQESGPGLVKPSETLSLTCTVSGASISSNHYFWGWIRQPPGKGLAWIGSMHYSGSTYYNPSLKSRVTISVDTSKNQLSLKLSSVTAADTAVYYCARGVNYYDRNGYYRNDGFDIRGQGTMVTVSS VL: DIQMTQSPSSLSASVGDRVTITCRASQGIRNDLGWYEQKPGKAPKRLIYAASSLESGVPSRFSGSGSGTEFTLTISSLQPEDFATYYCLQHNTYPFTFGPGTRVDIK | < 100
MnC4t2p1_F5 (antibody, V domains shown) VH: QLQVQESGPGLVKPSETLSLTCTVSGASISSNHYFWGWIRQPPGKGLAWIGSMHYSGSTYYNPSLKSRVTISVDTSKNQLSLKLSSVTAADTAVYYCARGVNYYDRNGYYRNDGFDIRGQGTMVTVSS VL: DIQMTQSPSSLSASVGDRVTITCRASQGIRNDLGWYEQKPGKAPKRLIYAASSLESGVPSRFSGSGSGTEFTLTISSLQPEDFATYYCLQHNTYPFTFGPGTRVDIK | < 100
MnC4t2p1_D10 (antibody, V domains shown) VH: QLQVQESGPGLVKPSETLSLTCTVSGASISSNHYFWGWIRQPPGKGLAWIGSMHYSGSTYYNPSLKSRVTISVDTSKNQLSLKLSSVTAADTAVYYCARGVNYYDRNGYYRNDGFDIRGQGTMVTVSS VL: DIQMTQSPSSLSASVGDRVTITCRASQGIRNDLGWYEQKPGKAPKRLIYAASSLESGVPSRFSGSGSGTEFTLTISSLQPEDFATYYCLQHNTYPFTFGPGTRVDIK | < 100

Reference: patent US20210371503A1
